According to the domain aggregation screens of Martell et al. (2025):

Experiment: soluble fraction after stress (log2 fold change); higher = more stays soluble; pooled small domains, quantitative proteomics
Settings: stress: 75 degC
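Further: 20 min heating vs room temperature control held 20 min.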

HMDIDASEVRGIISQYINEPDGRVSYILETIQKKYRYLPEEAIRIVAQELEVPLTQLFGVATFYAAFSL
soluble fraction (log2): 0.188

HMGVAASEVHREKKESSLQWRQSYNVATDQRRQGKTYKEITEFLNGAELKNSKGGTWSISGVRKMLM
soluble fraction (log2): 0.0165

HMSPLPDRESLGAIEKLISLLGSSEWTVREKATRELGAFGYLARPVLQRELATSGDPEVSRRLERILSNL
soluble fraction (log2): -0.545

HMSSVMMPDLTGESAIVAMERLQQLGLLPKVEEVDSYREPGIVLEQLPRAGEKIKRGRIAILKVSS
soluble fraction (log2): -0.0579

HMSKNVTMPNLVGYSMRQAKAELLSRGLHLGKLIYVNDIATNNVISQLYRNAEIEPGVKIESESYVDLVVG
soluble fraction (log2): -1.76

HMDEEEKGEVEVPNLIGLTRKEAKKTLEEEGLLIETKESLKTNLDDEYEKIKSQLPKAGIKIKQGSTVYVD
soluble fraction (log2): 0.154

HMDRASGEEEALKEAEDAISRVWEFDGPVELNPQNSYLRRLQHELASRYNVKSVSIGQEPNRRVVYYK
soluble fraction (log2): -0.163

HMKEILLITGKGLHSGQDDVYKSAQLSKLRYSVPEFIKSNLEISQLILSVETPLQKDGGDGALLIK
soluble fraction (log2): -0.0322

HMATGIKAVDNVFGWMNLEQVAKTVGLDIPSVLRASGLPEDTPVDISIKKIPGVDDEELKDSLRQYIEKS
soluble fraction (log2): -0.107

HMSTQYKTGHYKTTDALNLRASYSTSSNVLLTIPKGKTIVVTRVHNNEWGQVEYNGKTGWIYLEYTAYTES
soluble fraction (log2): -1.85

HMNSIDIENELVKIIEKNGQPMSFDDLVFKLDSLYSTRYKFAKGYIRTIILNSNRIASIGKTSTYSLYKWN
soluble fraction (log2): -3.12

HMGNKDAQLVHLAKMNEIQIELMKTGRGYMVTDQNVYNLAKKMGENMGFKHPDLFLTDPAKV
soluble fraction (log2): -0.0897

HMAAESWTEKSRALAAAGLVVMGRDAQTKIEELTNLAPLIEAANASNTRLLTSQSIDELLSIVPTEENL
soluble fraction (log2): 0.0818

HMETLSKVGSTGSEVRQIQTKLKNWGYFSDKVDGIYGEKTRAAVVWFQKKNGLTADGIAGPATLKAMGIYT
soluble fraction (log2): -0.705

HMREIKSNEILLEVENLKNSEFFNDINFNIKKGEIVGFSGLIGAGRTELALTLFGYYKAESGKVIQ
soluble fraction (log2): 0.101

HMRKLDQRLAGLLLGKGRLVKATHQQLADELGSVREMVSRLLKGFAEHDLVRMSREQIEIVDAAGLRKLAD
soluble fraction (log2): -2

HMPIMDSDDKYEALGIPQEWIAVVKKAGYQTVEALKAVENPNKLHQELSVMNKKEKLGLAGLTPEMVKAWL
soluble fraction (log2): 0.321

HMDRAIAAHLEARVRDALKQLSPEQTRVIELFFFDNKTHAEIENDLKIPLGTVKSRLRLALNKLRASL
soluble fraction (log2): -2.55

HMEMNDFETLRDMYLTGKIWNVGDIVEANGVRGKVIRKGTNYLSFVDEDNKVHKAWLYDIEE
soluble fraction (log2): 0.291

HMSQVLVRINQDLNIRSGPGAQYDIIAVYRSGAIASVIGTYNNWYKVNFELDSKSYTGWINGTFTSR
soluble fraction (log2): -2.48

HMHTGLTNYEYKQIKSSLLKILTQSESMRLGELVDKVDQFESEKVTTVIRFLVGNEELMLFDDTLTLKKQL
soluble fraction (log2): -0.202

HMVEEVDYGTFMRMIEEKNIGKVEVRAGEIVFTDKDEKQIYKTGAMEDATLTQRLYESGAEFSKDV
soluble fraction (log2): -0.0507

HMAKTGMDALVGRRVVLTKAIAGEGEGLVAVDGDVWRATSPAGSAIPKGTEVRITGYRSIVLEVEPI
soluble fraction (log2): -1.87

HMRVDYKTQLQELLQRQGAAAPQYRLLVEEGPAHLRRFQVGVYFQGRLLGTGWGRNKKEAEQEAARQALMP
soluble fraction (log2): -1.9

HMNIDKLVGSTGTVVRSVTPDTAGLVRVNDEDWRASAEEILYERDAIVVEGIEGVTLIVSKLS
soluble fraction (log2): -0.813

HMPTYEEAKTYLKAAFEHIVAAGRDVGELVEFAFAKSGDAVAPYLRRFLSDVHEGRITIQGLTESAKLAV
soluble fraction (log2): 0.292

HMNRTEYMAALRRALSVLPEEERASALRYYEEYFDDAGPENEEKVIADLGAPEKVAGQILADYRE
soluble fraction (log2): 0.0934

HMSDRQLKRQANILYTTRKLASKVGYDGLTMRGLAEASEVSPKTLYNLFSSKDELLAAALEDLVGIV
soluble fraction (log2): 0.0601

HMQNRIVNTTQGLAADKRGLLVADETGHTTRPGIFASGDVVNGARTVVEAVAHSKIVAESMHQYMQ
soluble fraction (log2): 0.654

HMQASPADLLSDRELEVFQLTGEWKTTRQIAQELHLSVKTIEYYREQIKRKLNLKSAAELTQHATAWVQRG
soluble fraction (log2): -2.93

HMGSAKAQLYDLMNAHQVTRNQIQDIVAEKGYFPAGTPIENYPDDFVKGVLVGAWDQVHKAILDKEI
soluble fraction (log2): 0.326

HMKEQLEAYVNRLFADAALTIRNAEVRQEILQHALDRYDDLIASGKTEQEAYDETVSGIGDVSGLYEHK
soluble fraction (log2): -0.584

HMSAEKPVKSELFYKSMLNSFEQAVRFMIANGILEDFKSRIVAINNETNHQNWFNKQEFNAIIERF
soluble fraction (log2): -1.49

HMWNTADDIKEAIWKLIQSEDPKKPYSDLKISQLLLEKEMKISRRTVAKYRKEMGILGTYSRK
soluble fraction (log2): -0.603

HMGSAIAHAIASLPDRYRELLLLKYDTGYSEKEIAQLLGMTEANVKKTIQRAKAKLQTLLDEMEA
soluble fraction (log2): -1.43

HMINVGYKFKQIRENAGLTLKQVSAMSGLSVSFISQIERGVVDPSWSSLKKISAALNIKLKDLF
soluble fraction (log2): -2.82

HMKVRVFIERSNDGYSAYMPDDNNLPFGLTGDGKTAQEAMQDFLLARDEMKEFFIEEGKEFPEVEFDFS
soluble fraction (log2): -0.828

HMVMLIVMNHTASQADIDKVIEVVSGMGFTAAPIPGGERTAIGVLGNKGYVDDSTIRDLPGVQQAIHVSKP
soluble fraction (log2): -1.21

HMDIYENIDKELSKQGKSRRKLAIAAGIPPSTFQSMMERKRGLSVENLRKIAEVLNLKWYDLL
soluble fraction (log2): -0.985

HMGSEISLNAFNIPKGSVSVTAGGTKLVENQDYTVDYTLGRIKILNEGILNSGVPIQVNFENNTLFN
soluble fraction (log2): -0.0124

HMSLNIIEITAKKEINELKSFNIIYFNFDKNNSIYEYKISEREKKEILEIEKIIKNSDNVTNYEIRYSF
soluble fraction (log2): -1.31

HMSSARKVTVRGVRELPGIFMEKAEILDDGVRFFYRGEMEKLIGALQGLPIRDLTITEPDLEEVFLHFY
soluble fraction (log2): -1.48

HMVEKNALSEEIEGYVNKYGKDRSSLMPVLQAIQRKHSYINDFAQQEVARLLDIHPVEVFSVISFYSFLH
soluble fraction (log2): -2.21

HMDTTLFGLFQNVILTQEDYEELSRTIVEDLDGLIDRLSAYMTSTGKTYKNHKATLLSWYLQDEKKFK
soluble fraction (log2): -1.78

HMIPRNLEDLVRENQIGLVILKIVEIIGEDNIRDLDPETIYFINRILNELNLKKIRNNILSEALPPR
soluble fraction (log2): -1.36

HMSTIAAMADPRAWALEMLGFPPGTVKPSKREIQVRFRESLRDVHPDHGGDSRTASASINDLSEARRVLLS
soluble fraction (log2): -0.36

HMVEPIKAPMPGMVLKILVEPGQQIEKGQGVLILEAMKMENVLKSSAAATVKSIKVSEKSAVEKGAILVEL
soluble fraction (log2): -0.463

HMSSEYARFFSGNYYEVLGVAKNASYDEIKAAWKKLVKEYHPDLHPQRQEEFTKIIQKINEAYEYFKKMH
soluble fraction (log2): -0.583

HMFNRAVSDNEALQVREHFDRDATVMSLAKKYGVSTVTIQRILLGKTYRNVGGPLFDKATLKKRMGN
soluble fraction (log2): -1.2

HMNYEFLEKIGFSSNEAKVYGTLIKHKVLNGYEIAKLSGVARSLVYEVINRLVAKGAVIRIDGEPNFYKP
soluble fraction (log2): -2.2

HMNSEFPFNGGRIVDNVPANRLQIFFDEKPDADVRTRLKQNGFRWAPNSGAWQSYRHGYTLDWARREFNA
soluble fraction (log2): -0.136

HMDPTVEENKLNPRDLLIIQRVKEGRTNKEIAEELNVAEITVKKQLSSLYQRYKVHNRNQLLLALD
soluble fraction (log2): -0.285

HMKIPPIMFVRAIMVAGRQSMAIMDIEGVGTGIIVRSGYSFSNGEGKVVRIGPDKVTVNWSGKHLDLAPG
soluble fraction (log2): -3.8

HMPKLSNNHMAVWQAIRSRTAKGEPSTRAVIRDDLKAAGMDTSKHFSRWLTKLIDLGMVVKDGENLSIR
soluble fraction (log2): -0.395

HMGVARGQAQVTTRQHVVQPGETLYQISKQYGVTVAEILRYNADIEDNTVKVGQTLQIPTPLP
soluble fraction (log2): ≥ 1.04

HMAPEQWYVLTSGQLPKGPYRLRHIVAMSKGDNWLVARKGAEQWTPLRHLPEFRQAQEANEYIQAIS
soluble fraction (log2): -1.48

HMRDQAIDIYKTVHSVAEPYKEVFLLRVLGELSFKEISHIFGKSESWAKVTFFRAKIKVVEKREES
soluble fraction (log2): -3.97

HMLSLGQQIRNHVLSRIESGEWPEGSRIPSEAKLVELLGASRMTIHIALRDLSAEGVLLRKQGAGTFVAPR
soluble fraction (log2): -2.68

HMNMEDIADKIGRLYDNLPDDLKLMIKYRDIDDMTYDEIARKANLPIGTVRSRLHRARDILLREI
soluble fraction (log2): -1.07

HMDDSPTARALRTLDLIHNRPGITAAELADRLGVTERAVRRYVLTLRDAGVPVLGTPGRYGGYQVGK
soluble fraction (log2): -0.818

HMATIGVGSKVTLTTYVDWVGNGLLKTRDFYFVSELNGKRAVLRADSMNGAIYAAVNIDNLRI
soluble fraction (log2): -3.66

HMAEPRVQEVYFEFDGKQVEAGQVVSLIEQAYKNEGHQIGRIKDLKVYINSEEGKAYYVINGDDGEGKYIE
soluble fraction (log2): 0.0727

HMLILTWNYPYEYPMMMRSFLQEIGISRTFLAHIKSNGELLINGRHEIVLKTLQPGDVLTMVIPPSG
soluble fraction (log2): -2.13

HMNNIYFSPVVEENNKGLRLDKFLAASFPEFSRSQLQRLILEGNVSNDDVVIADNSQKVRVGDSFQVIVPE
soluble fraction (log2): -0.018

HMPREQQENVYLLEKAKRLYEEYLGDQRQTIGHALAQFERVLESQDPAAIRRAQKEFGEFLERYDG
soluble fraction (log2): -0.0743

HMSILDEAEFKKIESALLDFITNNIFTVKELLQASRGIKQDKFWKVFQFLQSERKVVVNELGYIEL
soluble fraction (log2): -0.287

HMPISQGATVKHNANMRKGASTKYKVTGVLQEGEEVKILSQSNGWYKIQNSDNEKGWTYNTHINASDK
soluble fraction (log2): 0.0826

HMSNPPLPFLAKTKVSWTGEQDGDLGFLENEVVKVFHVVDELWWQGSLSRNGAEGIFPRDFVEVISAP
soluble fraction (log2): -2.09

HMEIYELTDQEQRVLEFIGEGMTNREIAKNMFLAEKTVKNYVSSLLRKLGLERRTQAAAMAVRLSV
soluble fraction (log2): -0.119

HMKNESLMLPRDIDYSRVHGLSNEAIQKLQDALPQSLGQASRIEGITPATLSLLLLYLKKNNKRI
soluble fraction (log2): -0.00281

HMERDVNQLTPRERDILKLIAQGLPNKMIARRLDITESTVKVHVKHMLKKMKLKSRVEAAVWVHQERI
soluble fraction (log2): -1.55

HMVEGVSLVEIYVDENSKYNGKLLSEIPKKENTLVIMIQRGEQVIIPHGNIRLESGDMLVVSKTEI
soluble fraction (log2): -2.71

HMYSDIERAMTNAPEQFANKQAVLDFLNKNRIKKSEVDDYRIASLLKLYDDASPISKTEIISQVRT
soluble fraction (log2): 0.396

HMSAGYTYQNYQQDLKSGNVQNIHIYLSEEMYSGNVKVIYKNNKSVTFTVTDVTIAEAEARQVGISPIIYE
soluble fraction (log2): -2.38

HMQEERLTFDTLLGISGIGPRLALAVLSRFTPGSLAAAVDAGDTKAFSAVPGVGNRTASRIILELKGKL
soluble fraction (log2): -0.748

HMVNAVKFAIEKMPYKYSSLLTLKYVMGYSGKEIAEITGLSETNVRQQLLKGRKLLESMLEE
soluble fraction (log2): -2.9
